Reference: patent US6818617
Like-named read-outs stand apart in the source and are kept apart here.

Key:
[1] = target: integrin α4β7 (UniProt P13612); experiment: inhibition of cell adhesion: RPMI 8866 cells to MadCAM-1
[2] = target: integrin α4β7 (UniProt P13612)
[3] = target: integrin α4β1 on Jurkat cells (UniProt P13612)
[4] = target: integrin α4β1 on Jurkat cells (UniProt P13612); experiment: inhibition of cell adhesion: Jurkat cells to CS-1
[5] = target: integrin α6β1 on K562 cells transfected with α6 (UniProt P23229); experiment: inhibition of cell adhesion: K562 (α6+) cells to laminin
[6] = target: integrin α4β1 on Jurkat cells (UniProt P13612); experiment: inhibition of cell adhesion: Jurkat cells to immobilized VCAM-1
[7] = target: integrin αIIbβ3 (human) (UniProt P08514); experiment: cell-based or functional assay
[8] = target: integrin αIIbβ3 (human) (UniProt P08514); experiment: inhibition of cell adhesion: A5 (CHO αIIbβ3+) cells to immobilized fibrinogen
[9] = target: integrin αvβ3 (human) (UniProt P06756); experiment: inhibition of cell adhesion: VNRC3 (CHO αvβ3+) cells to immobilized vitronectin
Sequence of integrin αvβ3 (human) (P06756 31-1048, chain 1 of 2): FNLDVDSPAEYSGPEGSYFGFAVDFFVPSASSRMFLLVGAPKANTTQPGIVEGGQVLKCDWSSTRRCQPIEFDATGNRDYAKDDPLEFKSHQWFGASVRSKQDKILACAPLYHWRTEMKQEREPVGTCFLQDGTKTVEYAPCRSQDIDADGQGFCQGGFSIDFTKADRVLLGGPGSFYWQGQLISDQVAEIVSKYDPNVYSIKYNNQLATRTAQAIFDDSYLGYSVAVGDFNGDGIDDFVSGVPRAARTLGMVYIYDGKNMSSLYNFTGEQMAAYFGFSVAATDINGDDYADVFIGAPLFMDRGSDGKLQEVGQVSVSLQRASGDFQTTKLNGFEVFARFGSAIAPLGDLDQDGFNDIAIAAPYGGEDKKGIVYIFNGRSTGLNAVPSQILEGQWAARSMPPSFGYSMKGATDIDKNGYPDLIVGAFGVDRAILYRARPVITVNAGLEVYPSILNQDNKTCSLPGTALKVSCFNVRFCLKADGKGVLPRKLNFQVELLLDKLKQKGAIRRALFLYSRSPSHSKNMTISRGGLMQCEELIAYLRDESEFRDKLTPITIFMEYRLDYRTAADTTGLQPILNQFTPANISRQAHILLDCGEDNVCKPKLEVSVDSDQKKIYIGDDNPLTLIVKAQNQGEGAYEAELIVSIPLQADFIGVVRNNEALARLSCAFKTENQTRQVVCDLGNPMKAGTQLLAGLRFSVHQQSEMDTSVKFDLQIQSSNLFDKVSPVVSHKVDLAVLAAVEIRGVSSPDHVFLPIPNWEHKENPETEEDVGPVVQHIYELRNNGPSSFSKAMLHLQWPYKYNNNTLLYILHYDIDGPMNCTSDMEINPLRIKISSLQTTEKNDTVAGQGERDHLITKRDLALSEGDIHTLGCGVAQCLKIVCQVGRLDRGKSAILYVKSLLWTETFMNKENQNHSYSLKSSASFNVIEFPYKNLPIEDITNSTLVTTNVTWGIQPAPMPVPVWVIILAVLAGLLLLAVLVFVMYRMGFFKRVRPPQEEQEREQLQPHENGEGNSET
Sequence of integrin αvβ3 (human) (P05106 27-788, chain 2 of 2, further chain): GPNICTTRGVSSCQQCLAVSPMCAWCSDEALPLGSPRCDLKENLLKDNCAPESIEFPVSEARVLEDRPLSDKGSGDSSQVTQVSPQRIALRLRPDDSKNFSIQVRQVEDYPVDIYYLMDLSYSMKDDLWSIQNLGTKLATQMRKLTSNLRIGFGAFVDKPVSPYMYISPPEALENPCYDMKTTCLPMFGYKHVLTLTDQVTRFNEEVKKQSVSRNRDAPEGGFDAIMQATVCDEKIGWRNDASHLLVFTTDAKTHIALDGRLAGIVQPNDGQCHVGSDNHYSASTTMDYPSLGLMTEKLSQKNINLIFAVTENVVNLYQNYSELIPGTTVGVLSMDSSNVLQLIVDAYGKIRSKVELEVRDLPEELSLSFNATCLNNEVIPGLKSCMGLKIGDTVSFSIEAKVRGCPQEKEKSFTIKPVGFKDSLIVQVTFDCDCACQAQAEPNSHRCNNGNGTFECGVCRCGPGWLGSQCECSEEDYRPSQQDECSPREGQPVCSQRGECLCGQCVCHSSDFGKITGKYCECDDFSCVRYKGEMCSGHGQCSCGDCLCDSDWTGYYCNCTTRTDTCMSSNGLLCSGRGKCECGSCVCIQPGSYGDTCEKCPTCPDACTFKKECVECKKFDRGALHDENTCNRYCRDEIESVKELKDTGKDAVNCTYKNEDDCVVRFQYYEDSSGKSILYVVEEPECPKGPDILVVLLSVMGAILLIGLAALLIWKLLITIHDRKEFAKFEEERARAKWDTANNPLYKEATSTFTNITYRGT

Sequence of integrin α6β1 on K562 cells transfected with α6 (P23229 24-1130, chain 1 of 2): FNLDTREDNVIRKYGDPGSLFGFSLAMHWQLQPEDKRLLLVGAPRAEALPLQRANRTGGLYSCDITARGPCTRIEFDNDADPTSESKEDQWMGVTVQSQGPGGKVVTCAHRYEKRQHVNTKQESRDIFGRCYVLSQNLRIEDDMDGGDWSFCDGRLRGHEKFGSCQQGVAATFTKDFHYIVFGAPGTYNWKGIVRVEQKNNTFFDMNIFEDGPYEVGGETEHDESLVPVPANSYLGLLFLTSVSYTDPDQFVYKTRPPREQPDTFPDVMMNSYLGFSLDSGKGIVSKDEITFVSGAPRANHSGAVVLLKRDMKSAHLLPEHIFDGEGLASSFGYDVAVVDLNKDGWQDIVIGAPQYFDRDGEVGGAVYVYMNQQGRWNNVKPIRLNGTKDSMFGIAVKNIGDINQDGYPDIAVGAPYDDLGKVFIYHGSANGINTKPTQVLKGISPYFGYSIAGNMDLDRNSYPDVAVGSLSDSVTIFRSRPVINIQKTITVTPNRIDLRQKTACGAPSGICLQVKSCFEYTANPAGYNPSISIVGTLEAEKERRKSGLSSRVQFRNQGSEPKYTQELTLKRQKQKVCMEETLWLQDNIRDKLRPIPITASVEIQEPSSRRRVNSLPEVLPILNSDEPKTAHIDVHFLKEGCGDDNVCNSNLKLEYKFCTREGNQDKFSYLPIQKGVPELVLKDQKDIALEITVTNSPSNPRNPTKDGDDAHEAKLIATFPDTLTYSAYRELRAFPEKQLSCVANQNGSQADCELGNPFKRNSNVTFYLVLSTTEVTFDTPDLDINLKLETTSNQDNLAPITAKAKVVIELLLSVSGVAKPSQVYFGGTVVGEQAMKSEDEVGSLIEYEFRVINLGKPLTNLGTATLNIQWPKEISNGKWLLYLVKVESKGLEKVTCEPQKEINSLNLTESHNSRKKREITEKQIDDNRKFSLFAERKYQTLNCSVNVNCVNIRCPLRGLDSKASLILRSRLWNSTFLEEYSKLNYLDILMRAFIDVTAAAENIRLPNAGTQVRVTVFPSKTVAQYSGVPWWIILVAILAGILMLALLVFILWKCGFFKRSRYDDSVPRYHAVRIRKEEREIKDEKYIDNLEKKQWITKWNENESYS
Sequence of integrin α6β1 on K562 cells transfected with α6 (P05556 21-798, chain 2 of 2, further chain): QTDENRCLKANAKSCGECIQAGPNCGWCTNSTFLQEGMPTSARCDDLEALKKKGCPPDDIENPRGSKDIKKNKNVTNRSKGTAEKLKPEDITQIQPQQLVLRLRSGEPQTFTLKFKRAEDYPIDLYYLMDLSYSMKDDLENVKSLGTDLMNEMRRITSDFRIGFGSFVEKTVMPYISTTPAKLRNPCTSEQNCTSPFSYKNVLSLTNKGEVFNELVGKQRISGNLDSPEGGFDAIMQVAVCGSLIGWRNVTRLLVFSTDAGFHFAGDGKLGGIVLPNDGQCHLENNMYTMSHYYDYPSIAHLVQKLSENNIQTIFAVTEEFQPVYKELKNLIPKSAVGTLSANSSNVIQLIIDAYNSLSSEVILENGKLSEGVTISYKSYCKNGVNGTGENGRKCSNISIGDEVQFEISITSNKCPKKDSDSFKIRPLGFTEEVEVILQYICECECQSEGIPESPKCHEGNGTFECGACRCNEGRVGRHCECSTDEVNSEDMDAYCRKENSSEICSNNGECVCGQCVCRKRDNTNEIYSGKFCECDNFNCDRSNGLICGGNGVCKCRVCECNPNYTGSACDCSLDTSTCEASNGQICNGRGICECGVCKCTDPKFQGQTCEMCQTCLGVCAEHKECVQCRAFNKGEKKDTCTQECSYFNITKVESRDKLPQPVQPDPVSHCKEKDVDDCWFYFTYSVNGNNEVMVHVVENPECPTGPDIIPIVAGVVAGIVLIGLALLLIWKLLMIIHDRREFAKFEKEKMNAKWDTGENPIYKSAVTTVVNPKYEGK

Row | Substance | IC50 [1] | IC50 [2] | IC50 [3] | IC50 [4] | IC50 [5] | IC50 [6] | IC50, ADP PA (ADP-induced platelet aggregation in platelet rich plasma) [7] | IC50 [8] | IC50 [9]
1 | EC-3 protein, heterodimeric disintegrin from Echis carinatus suchoreki venom (from UniProt P81630 1-67; P81631 1-67) | 5 nM | 6 nM | 28 nM | 100 nM | > 10000 nM | 25 nM | 1000 nM | 500 nM | > 10000 nM
2 | Echistatin (from UniProt P0C6R5 4-52) | > 10000 nM | – | – | – | > 10000 nM | > 10000 nM | 130 nM | 50 nM | 50 nM
